Data as given in article PMC11901735 (Molecules, 2025).

Experiments:
exendin-4 = exendin-4 (UniProt P26349 48-87); assay: SPR; Biacore T200; recombinant human GLP-1R (0.5 μM) immobilized on a CM5 sensor chip; peptides injected at four-fold serial dilutions (0, 0.1-100 nM); n = 3; 1:1 interaction model; settings: both partners purified
[1] = target: Ex-4-C40, exendin-4 with an additional Cys at the C-terminus (UniProt P26349 48-87); assay: as above; settings: both partners purified

B1: Recombinant human GLP-1R protein (receptor)
chain: RPQGATVSLWETVQKWREYRRQCQRSLTEDPPPATDLFCNRTFDEYACWPDGEPGSFVNVSCPWYLPWASSVPQGHVYRFCTAEGLWLQKDNSSLPWRDLSECEESKRGERSSPEEQLLFLY
modifications: Limits are not printed. The Sino Biological H02H catalogue suffix suggests a soluble extracellular domain with a C-terminal human Fc (left out). Residues 24-145 are the usual ectodomain construct …
Kd (exendin-4): 33.6 nM
Kd [1]: 36 nM
